“Also recorded” adds a separate entry of the source.
Columns and labels:
Assay type in all cases: in vivo, human
[1] = tested on: patients with type 2 diabetes mellitus (T2DM); assay: C-peptide (OGTT) in clinical study of ACZ885 in T2DM patients on metformin; conditions: dose escalation, Week 4 post-dose, versus placebo
Description: In the beta cells of the pancreas, the proinsulin molecule is cleaved to form insulin and C-Peptide. C-Peptide, a polypeptide consisting of 31 amino acids, is stored in the secretory granules of the beta cells and released into circulation in equimolar amounts with insulin. The determination of C-Peptide provides an assessment of endogenous insulin secretory reserves in patients with diabetes mellitus and is considered a more reliable indicator of insulin secretion than insulin itself. The ADVIA Centaur C-Peptide assay is a two-site sandwich immunoassay using direct chemiluminescent technology, which uses constant amounts of two antibodies. The first antibody, in the Lite Reagent, is a monoclonal mouse anti-C-Peptide antibody labeled with acridinium ester. The second antibody, in the Solid Phase, is a monoclonal mouse anti-C-Peptide antibody. Streptavidin in the Solid phase is covalently coupled. A direct relationship exists between the amount of C-Peptide present in the patient sample and the amount of relative light units (RLUs) detected by the system. The method has an inter-assay precision of 1.69-1.81% CV, and an intra-assay precision of 3.7-4.1% (determined by assaying 20 replicate assays of a sample then evaluating the coefficient of variation). Accuracy is evaluated by comparison with College of American Pathologists (CAP) Ligand. […]

[2] = tested on: patients with type 2 diabetes mellitus (T2DM); assay: Glucagon (OGTT) in clinical study of ACZ885 in T2DM patients on metformin; conditions: dose escalation, Week 4 post-dose, versus placebo
Description: Glucagon is a hormone secreted by the alpha cells of the pancreatic islets of Langerhans. It is secreted in response to hypoglycemia and increases the blood glucose. As serum glucose levels rise in the blood, glucagon is inhibited by a negative feedback mechanism. The Millipore/LINCO Glucagon Radioimmunoassay kit utilized I^125 labeled glucagon and glucagon antiserum to determine the level of glucagon in plasma by the double antibody/PEG technique. The antibody is specific for pancreatic glucagon. A standard curve is set up with increasing concentrations of standard unlabeled antigen and from this curve the amount of antigen in unknown samples can be calculated. The method has an inter-assay precision of 7.3-13.5% CV, and an intra-assay precision of 4.0-6.8% (determined by assaying replicate assays then evaluating the coefficient of variation). Accuracy is evaluated by comparison with College of American Pathologists (CAP) Ligand. A multi center, randomized, double blind, placebo-controlled, dose escalation study of the safety, tolerability, pharmacokinetics and pharmacodynamics of ACZ885 administered intravenously to patients with type 2 diabetes mellitus. The aim of the study is to compare the pharmacokinetic and pharmacodynamic effects of five doses (i.v. administration) of ACZ885 with placebo in patients with type 2 diabetes mellitus (T2DM). […]

[3] = tested on: patients with type 2 diabetes mellitus (T2DM); assay: Plasma glucose (fasting and OGTT) in clinical study of ACZ885 in T2DM patients on metformin
Experimental: The glucose assay is a hexokinase enzymatic method. Hexokinase catalyzes the phosphorylation of glucose with adenosine triphosphate. The glucose-6-phosphate is then oxidized to 6-phosphogluconate in the presence of NAD by the enzyme glucose-6-phosphate dehydrogenase. The amount of NADPH formed during the reaction is equivalent to the amount of D-glucose in the specimen and is measured photometrically by the increase in absorbance. The method has an inter-assay precision of 5.1-6.2% CV, and an intra-assay precision of 1.7-2.5% (determined by assaying 50 replicate assays of a sample then evaluating the coefficient of variation). The method is specific for glucose; no other carbohydrate is oxidized. A multi center, randomized, double blind, placebo-controlled, dose escalation study of the safety, tolerability, pharmacokinetics and pharmacodynamics of ACZ885 administered intravenously to patients with type 2 diabetes mellitus. The aim of the study is to compare the pharmacokinetic and pharmacodynamic effects of five doses (i.v. administration) of ACZ885 with placebo in patients with type 2 diabetes mellitus (T2DM). […] OGTT was administered at Baseline, 4 and 12 wk post-dose. The subsequent cohorts were included in the evaluation of pharmacodynamic, pharmacokinetis, pharmacogenomics and pharmacogenetics. • Cohort 2 (n=90; 1:1=ACZ885:Plb): received a single dose of ACZ885 (10 mg/kg) or placebo. • Cohort 3 (n=96) received a single dose of ACZ885 0.1, 0.3, 1.5 mg/kg or placebo (1:1:1:1). • Cohort 4 (n=30; 2:1=ACZ885:P1b) received a single dose of ACZ885 (0.03 mg/kg) or placebo. The study was designed to follow the patients for 24 weeks (168 days) after the single intravenous (i.v.) administration. An analysis of covariance (ANCOVA) with treatment as the classification variable and baseline as the covariate will be used for the comparison of treatments with respect to these parameters.

B1: ACZ885: anti-IL1β antibody, also referred to as Canakinumab; variable domains shown in SEQ ID NO:1 (VH) and SEQ ID NO:2 (VL) (antibody, V domains shown)
VH: QVQLVESGGGVVQPGRSLRLSCAASGFTFSVYGMNWVRQAPGKGLEWVAIIWYDGDNQYYADSVKGRFTISRDNSKNTLYLQMNGLRAEDTAVYYCARDLRTGPFDYWGQGTLVTVSS
VL: EIVLTQSPDFQSVTPKEKVTITCRASQSIGSSLHWYQQKPDQSPKLLIKYASQSFSGVPSRFSGSGSGTDFTLTINSLEAEDAAAYYCHQSSSLPFTFGPGTKVDIK
modifications: homo sapiens
- OGTT C-peptide AUC0-4 h [1]: Positive trends consistent with dose escalation; also recorded: positive trend at Week 4 post-dose, albeit not statistically significant
- OGTT glucagon AUC0-4 h [2]: Positive trends consistent with dose escalation; also recorded: positive trend at Week 4 post-dose, albeit not statistically significant
- OGTT glucose AUC0-4 h / post-prandial glucose ([3]; dose escalation, Week 4 post-dose, versus placebo): Positive trends consistent with dose escalation; also recorded: positive trend at Week 4 post-dose, albeit not statistically significant
- postprandial glucose (OGTT) compared to placebo ([3]; single dose 10 mg/kg, 4 weeks): significant reduction
- peak plasma glucose (PPG) following OGTT ([3]; single i.v. dose 10 mg/kg, Week 4, versus placebo in change from baseline, 10 mg/kg): statistically significant; also recorded: reduction
- fasting plasma glucose (FPG) ([3]; single i.v. dose 10 mg/kg, Week 4 post-dose, 10 mg/kg): decrease
- peak plasma glucose (PPG) following OGTT ([3]; single i.v. dose 10 mg/kg, Week 12): maintained
- plasma AUC glucose following OGTT ([3]; single i.v. dose 10 mg/kg, four weeks after treatment, on stable metformin): statistically significant decreased
- fasting plasma glucose (FPG), course of effect ([3]; single i.v. dose 10 mg/kg, from Week 4 to Week 12): attenuated
